Target: native B7H3 on cells (UniProt Q5ZPR3)
Experiment: flow cytometry on cells with native B7H3 (taken as H358), anti-His-tag iFluor 488 detection

Sequence of native B7H3 on cells (Q5ZPR3 29-534): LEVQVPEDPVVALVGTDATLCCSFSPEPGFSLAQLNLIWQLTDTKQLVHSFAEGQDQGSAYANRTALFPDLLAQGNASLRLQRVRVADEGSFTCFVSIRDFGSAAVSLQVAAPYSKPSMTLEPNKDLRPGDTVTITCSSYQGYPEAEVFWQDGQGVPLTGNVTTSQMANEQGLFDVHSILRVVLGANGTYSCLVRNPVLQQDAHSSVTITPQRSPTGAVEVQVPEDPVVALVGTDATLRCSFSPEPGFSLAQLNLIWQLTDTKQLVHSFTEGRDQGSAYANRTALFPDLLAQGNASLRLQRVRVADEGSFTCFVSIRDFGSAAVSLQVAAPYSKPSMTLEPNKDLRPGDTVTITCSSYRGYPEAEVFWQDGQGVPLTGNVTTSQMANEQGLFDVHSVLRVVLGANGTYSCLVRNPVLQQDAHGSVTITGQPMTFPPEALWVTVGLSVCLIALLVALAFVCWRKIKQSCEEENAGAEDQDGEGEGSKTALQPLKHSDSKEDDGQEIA

EC50 [nM] | MFI | Binder
77 | 539000 | VHH1_C002 (VHH) VHH: EVQLLESGGGLVQPGGSLRLSCAASGFTFSDYHMSWVRQAPGKGLEWVSGILNTGLSPTYAATVTGRFTISRDNSKNTLYLQMNSLRAEDTAVYYCAQGYYRATPSQANRGQGTLVTVSS
6.29 | 496000 | VHH1_C001 (VHH) VHH: EVQLVESGGGLVQPGGSLRLSCAASPRTFQTYFMGWFRQAPGKELEWVSVINWSGGTSYYKDSVKGRFTISRDNSKNTLYLQMNSLRAEDTAVYYCAAKGSGTYDREGEYDYWGQGTLVTVSS
